Results from FireProtDB (doi:10.1007/s00775-020-01777-0).

B1: Cytochrome c-553, B8C6L5 (parent)
chain: MKLTIVAALIASASAWTTPKSFESVKAAVAGAAVTAGVAVSPAFAGDVGAGEQIFNANCAACHAGGQNVIMPDKTLEKEALEQYLAGGRNEKAVMTQVTNGKNAMPAFGGRLSDEDIANVASYVIATSEAGWD

Variants of: B1
Conditions: Thalassiosira pseudonana; pH 7.4; Thermal; UV/Vis spectroscopy; HEPES; transition: 2; reversible: > 90% (Yes); whole UniProt chain shown

Variant | Tm [°C] | unfolding enthalpy (van 't Hoff) [kcal/mol]
MKLTIVAALIASASAWTTPKSFESVKAAVAGAAVTAGVAVSPAFAGDVGAGEQIFNANCAACHAGGQNVIMPDKTLEKEALEQYLAGGRNEKAVMTQVTNGKNAMPAFGGRLSDEDIANVASYVISTSEAGWD [A126S] | 35.1 | 40.8
MKLTIVAALIASASAWTTPKSFESVKAAVAGAAVTAGVAVSPAFAGDVGAGEQIFNANCAACHAGGQNVIMPDKTLEKEALEQYLAGGRNEKSVMTQVTNGKNAMPAFGGRLSDEDIANVASYVISTSEAGWD [A93S A126S] | 32.2 | 38.2
MKLTIVAALIASASAWTTPKSFESVKAAVAGAAVTAGVAVSPAFAGDVGAGEQIFNANCAACHAGGQNVIMPDKTLEKEALEQYLSGGRNEKAVMTQVTNGKNAMPAFGGRLSDEDIANVASYVIATSEAGWD [A86S] | 38.9 | 43.7
MKLTIVAALIASASAWTTPKSFESVKAAVAGAAVTAGVAVSPAFAGDVGAGEQIFNANCAACHAGGQNVIMPDKTLEKEALEQYLAGGRNEKSVMTQVTNGKNAMPAFGGRLSDEDIANVASYVIATSEAGWD [A93S] | 35.4 | 45.9
